{"source": "patent US20040203002", "about": "(published 2004)", "binders": {"B1": {"name": "Zif268 site TAG (dsDNA)", "DNA 1": "TATATAGCGTAGGCGTATATATCAAGTCAATCGGTCC", "DNA 2": "GGACCGATTGACTTGATATATACGCCTACGCTATATA", "modifications": "[none]"}, "B2": {"name": "Zif268 site CGG (dsDNA)", "DNA 1": "B1 DNA 1 with T10C, A11G", "DNA 2": "B1 DNA 2 with T27C, A28G", "modifications": "[none]"}, "B3": {"name": "Zif268 site TTG (dsDNA)", "DNA 1": "B1 DNA 1 with A11T", "DNA 2": "B1 DNA 2 with T27A", "modifications": "[none]"}, "B4": {"name": "Zif268 site GGG (dsDNA)", "DNA 1": "B1 DNA 1 with T10G, A11G", "DNA 2": "B1 DNA 2 with T27C, A28C", "modifications": "[none]"}, "B5": {"name": "Zif268 site GAG (dsDNA)", "DNA 1": "B1 DNA 1 with T10G", "DNA 2": "B1 DNA 2 with A28C", "modifications": "[none]"}, "B6": {"name": "Zif268 site TCG (dsDNA)", "DNA 1": "B1 DNA 1 with A11C", "DNA 2": "B1 DNA 2 with T27G", "modifications": "[none]"}, "B7": {"name": "Zif268 site AAA (dsDNA)", "DNA 1": "B1 DNA 1 with T10A, G12A", "DNA 2": "B1 DNA 2 with C26T, A28T", "modifications": "[none]"}, "B8": {"name": "Zif268 site CAG (dsDNA)", "DNA 1": "B1 DNA 1 with T10C", "DNA 2": "B1 DNA 2 with A28G", "modifications": "[none]"}, "B9": {"name": "Zif268 site AGG (dsDNA)", "DNA 1": "B1 DNA 1 with T10A, A11G", "DNA 2": "B1 DNA 2 with T27C, A28T", "modifications": "[none]"}}, "key": {"[1]": {"molecular_target": "T1, Zif268 wildtype (three zinc fingers, phage displayed) (Mus musculus, UniProt P08046 P08046:333-421)", "assay": "ELONA; apparent Kd, phage ELISA, PBS/Zn, RT"}, "[2]": {"molecular_target": "T1, Zif268 wildtype (three zinc fingers, …)", "assay": "apparent Kd interpolated from microarray signal 0.320"}, "[3]": {"molecular_target": "T1, Zif268 wildtype (three zinc fingers, …)", "assay": "apparent Kd interpolated from microarray signal 0.372"}, "[4]": {"molecular_target": "T1, Zif268 wildtype (three zinc fingers, …)", "assay": "apparent Kd interpolated from microarray signal 0.150"}, "[5]": {"molecular_target": "T1, Zif268 wildtype (three zinc fingers, …)", "assay": "apparent Kd interpolated from microarray signal 0.085"}, "[6]": {"molecular_target": "T1, Zif268 wildtype (three zinc fingers, …)", "assay": "ELONA; negative control; apparent Kd; microarray signal 0.052"}}, "note": "Residue numbers refer to the chain shown, from its start."}
{"binder": "B1", "values": [{"measurement": "Kd", "setting": "[1]", "result": 6.7, "unit": "nM"}]}
{"binder": "B2", "values": [{"measurement": "Kd", "setting": "[2]", "result": 35, "unit": "nM"}]}
{"binder": "B3", "values": [{"measurement": "Kd", "setting": "[1]", "result": 71, "unit": "nM"}]}
{"binder": "B4", "values": [{"measurement": "Kd", "setting": "[3]", "result": 28, "unit": "nM"}]}
{"binder": "B5", "values": [{"measurement": "Kd", "setting": "[4]", "result": 75, "unit": "nM"}]}
{"binder": "B6", "values": [{"measurement": "Kd", "setting": "[5]", "result": 180, "unit": "nM"}]}
{"binder": "B7", "values": [{"measurement": "Kd", "setting": "[6]", "result": "> 5000", "unit": "nM"}]}
{"binder": "B8", "values": [{"measurement": "Kd", "setting": "[1]", "result": 380, "unit": "nM"}]}
{"binder": "B9", "values": [{"measurement": "Kd", "setting": "[1]", "result": 54, "unit": "nM"}]}
